{
  "source": "the RNAGym collection of RNA variant scans (doi:10.1101/gr.219683.116)",
  "parents": {"B1": {"name": "mRNA-splicing (parent)", "chain": "AGUUGCUGCUGGGAGCUCCAGCACAGUGAAAUGGACAGAAGGGCAGAGCAA"}},
  "data": [
    {"variants_of": "B1", "assay": "exon inclusion enrichment index; higher = more inclusion; WT1 exon 5 minigene, HEK293", "values": [
      {"variant": "AGUUAGGGAUGGGAGCUCCAGCACAGUGAAAUGGACUCAAGGGCAGAGCAA", "note": "[G5A C6G U7G C9A A37U G38C]", "exon inclusion enrichment index": 0.00236},
      {"variant": "AGUUGACGACGGGAGCUCCAGCACAGUGAAAUGGACACGAGGGCAGAGCAA", "note": "[C6A U7C C9A U10C G38C A39G]", "exon inclusion enrichment index": 2.65},
      {"variant": "AGUUUCUUUUGGGAGCUCCAGCACAGUGAAAUGGACAGAAGGGCAGCUCAA", "note": "[G5U G8U C9U A47C G48U]", "exon inclusion enrichment index": 0.134},
      {"variant": "AGUUUAAUAUGGGAGCUCCAGCACAGUGAAAUGGACAGAAGGGCAGAGCAA", "note": "[G5U C6A U7A G8U C9A]", "exon inclusion enrichment index": 0.0741},
      {"variant": "AGUUAUAUAUGGGAGCUCCAGCACAGUGAAAUGGACAGAAGGGCACCGCAA", "note": "[G5A C6U U7A G8U C9A G46C A47C]", "exon inclusion enrichment index": 0.144},
      {"variant": "AGUUAUAUAUGGGAGCUCCAGCUGAGUGAAAUGGACAGAAGGGCAGAGCAA", "note": "[G5A C6U U7A G8U C9A A23U C24G]", "exon inclusion enrichment index": 0.128},
      {"variant": "AGUUAGGGAUGGGAGCUCCAGCAAAGUGAAAUGGACAGAAGGGCAGAGCAA", "note": "[G5A C6G U7G C9A C24A]", "exon inclusion enrichment index": 0.00195},
      {"variant": "AGUUGCUGCUGGGAGCUCCAGCACAGUGAAAUGGACAGAAGCACAGAGCAA", "note": "[G42C G43A]", "exon inclusion enrichment index": 0.623},
      {"variant": "AGUUGACGACGGGAGCUCCAGCACAGUGAAAUGGACAGCAGGGCAGAGCAA", "note": "[C6A U7C C9A U10C A39C]", "exon inclusion enrichment index": 1.37},
      {"variant": "AGUUCUUCUCGGGAGCUCCAGCACAGUAGAAUGGACAGAAGGGCAGAGCAA", "note": "[G5C C6U G8C C9U U10C G28A A29G]", "exon inclusion enrichment index": 0.736},
      {"variant": "AGUUUCUUUUGGGAGCUCAGGCACAGUGAAAUGGACAGAAGGGCAGAGCAA", "note": "[G5U G8U C9U C19A A20G]", "exon inclusion enrichment index": 0.00554},
      {"variant": "AGUUACCACCGGGAGCUCCAGCACAGUGAAAUGGACAGCGGGGCAGAGCAA", "note": "[G5A U7C G8A U10C A39C A40G]", "exon inclusion enrichment index": 2.18},
      {"variant": "AGUUUCUUUUGGGAGCUCCAGCACAGUGAAAUGACCAGAAGGGCAGAGCAA", "note": "[G5U G8U C9U G34A A35C]", "exon inclusion enrichment index": 0.0912},
      {"variant": "AGUUCUUCUCGGGAGCUGCAGCACAGUGAAAUGGACAGAAGGGCAGAGCAA", "note": "[G5C C6U G8C C9U U10C C18G]", "exon inclusion enrichment index": 2.21},
      {"variant": "AGUUCACACAGGGAGCUCCAGCACAGUGAAAUGGACAGCGGGGCAGAGCAA", "note": "[G5C C6A U7C G8A U10A A39C A40G]", "exon inclusion enrichment index": 0.142},
      {"variant": "AGUUACCACCGGGAGCUCGUGCACAGUGAAAUGGACAGAAGGGCAGAGCAA", "note": "[G5A U7C G8A U10C C19G A20U]", "exon inclusion enrichment index": 2.09},
      {"variant": "AGUUACCACCGGGAGCUCCAGCACAGUGAAAUGGACUGAAGGGCAGAGCAA", "note": "[G5A U7C G8A U10C A37U]", "exon inclusion enrichment index": 1.97},
      {"variant": "AGUUCACACAGGGAGCUCUAGCACAGUGAAAUGGACAGAAGGGCAGAGCAA", "note": "[G5C C6A U7C G8A U10A C19U]", "exon inclusion enrichment index": 0.0124},
      {"variant": "AGUUCGCGCCGGGAGCUAAAGCACAGUGAAAUGGACAGAAGGGCAGAGCAA", "note": "[G5C C6G U7C U10C C18A C19A]", "exon inclusion enrichment index": 1.63},
      {"variant": "AGUUGACGACGGGAGCUCCAGCACAGUCCAAUGGACAGAAGGGCAGAGCAA", "note": "[C6A U7C C9A U10C G28C A29C]", "exon inclusion enrichment index": 2.62},
      {"variant": "AGUUCGCGCCGGGAGCUCCAGCACAGUGAAAUGGACAGAAGGGCAGCACAA", "note": "[G5C C6G U7C U10C A47C G48A]", "exon inclusion enrichment index": 1.78},
      {"variant": "AGUUCGCGCCGGGACCUCCAGCACAGUGAAAUGGACAGAAGGGCAGAGCAA", "note": "[G5C C6G U7C U10C G15C]", "exon inclusion enrichment index": 3.44},
      {"variant": "AGUUCACACAGGGAGCUCCAGCACAGUGAAGUGGACAGAAGGGCAGAGCAA", "note": "[G5C C6A U7C G8A U10A A31G]", "exon inclusion enrichment index": 0.141},
      {"variant": "AGUUUCUUUUGGGAGGACCAGCACAGUGAAAUGGACAGAAGGGCAGAGCAA", "note": "[G5U G8U C9U C16G U17A]", "exon inclusion enrichment index": 0.115},
      {"variant": "AGUUGCUGCUGGGAGCUCCAGCACAGUGAAAUGGACAGAAGGGCCUAGCAA", "note": "[A45C G46U]", "exon inclusion enrichment index": 0.0235},
      {"variant": "AGUUCACACAGGGAGCUCCAGCACAGUGAAAUGGACAGAAGGAAAGAGCAA", "note": "[G5C C6A U7C G8A U10A G43A C44A]", "exon inclusion enrichment index": 0.532},
      {"variant": "AGUUACCACCGGGAGCUCCCGCACAGUGAAAUGGACAGAAGGGCAGAGCAA", "note": "[G5A U7C G8A U10C A20C]", "exon inclusion enrichment index": 1.81},
      {"variant": "AGUUUCUUUUGGGAGCUCCAGCACAGUGAAAUGGACAGAAGGGCUAAGCAA", "note": "[G5U G8U C9U A45U G46A]", "exon inclusion enrichment index": 0.0906},
      {"variant": "ACUUGACGACGGGAGCUCCAGCACAGUGAAAUGGACAGAAGGGCAGAGCAA", "note": "[G2C C6A U7C C9A U10C]", "exon inclusion enrichment index": 2.9},
      {"variant": "AGUUUCUUUUGGGACCUCCAGCACAGUGAAAUGGACAGAAGGGCAGAGCAA", "note": "[G5U G8U C9U G15C]", "exon inclusion enrichment index": 0.196},
      {"variant": "AGUUCUUCUCGGGAGCUUUAGCACAGUGAAAUGGACAGAAGGGCAGAGCAA", "note": "[G5C C6U G8C C9U U10C C18U C19U]", "exon inclusion enrichment index": 0.0402},
      {"variant": "AGGUAUAUAUGGGAGCUCCAGCACAGUGAAAUGGACAGAAGGGCAGAGCAA", "note": "[U3G G5A C6U U7A G8U C9A]", "exon inclusion enrichment index": 0.0113},
      {"variant": "AGUUUCUUUUGGGAGCUCCAGCACAGUGAAAUGGACAGAAGGGCACAGCAA", "note": "[G5U G8U C9U G46C]", "exon inclusion enrichment index": 0.148},
      {"variant": "AGUUCACACAGGGAGCUCCAGCACGUUGAAAUGGACAGAAGGGCAGAGCAA", "note": "[G5C C6A U7C G8A U10A A25G G26U]", "exon inclusion enrichment index": 0.306},
      {"variant": "AGUUAGGGAUGGGAGCUCCAGCACCGUGAAAUGGACAGAAGGGCAGAGCAA", "note": "[G5A C6G U7G C9A A25C]", "exon inclusion enrichment index": 0.0135},
      {"variant": "AGUUCUUCUCGGGAGCUCCAGCACAGUGAAAUGGACAGAAGGGCAGCUCAA", "note": "[G5C C6U G8C C9U U10C A47C G48U]", "exon inclusion enrichment index": 1.77},
      {"variant": "AGUUUCUUUUGGGAGCUCCAGCACAGUGAAAUGGACAGAAUGGCAGAGCAA", "note": "[G5U G8U C9U G41U]", "exon inclusion enrichment index": 0.17},
      {"variant": "AGUUCUUCUCGGGAGCUCCAGCACAGUGAAAGGGACAGAAGGGCAGAGCAA", "note": "[G5C C6U G8C C9U U10C U32G]", "exon inclusion enrichment index": 0.212},
      {"variant": "AGUUACCACUUGGAGCUCCAGCACAGUGAAAUGGACAGAAGGGCAGAGCAA", "note": "[G5A U7C G8A G11U]", "exon inclusion enrichment index": 1.23},
      {"variant": "AGUUAGGGAUGGGAGCUCCAGCACAGUGAAAUACACAGAAGGGCAGAGCAA", "note": "[G5A C6G U7G C9A G33A G34C]", "exon inclusion enrichment index": 0.000823},
      {"variant": "AGUUACCACCGGGAGCUCCAGCACAGUGAAAUGGAGGGAAGGGCAGAGCAA", "note": "[G5A U7C G8A U10C C36G A37G]", "exon inclusion enrichment index": 0.405},
      {"variant": "AGUUGACGACGGGAGCUCCAGCACAGUGAAAUGGACAGAAGGGCCCAGCAA", "note": "[C6A U7C C9A U10C A45C G46C]", "exon inclusion enrichment index": 2.21},
      {"variant": "AGUUAGGGAGCGGAGCUCCAGCACAGUGAAAUGGACAGAAGGGCAGAGCAA", "note": "[G5A C6G U7G C9A U10G G11C]", "exon inclusion enrichment index": 0.00673},
      {"variant": "AGUUGCUGCUGUUAGCUCCAGCACAGUGAAAUGGACAGAAGGGCAGAGCAA", "note": "[G12U G13U]", "exon inclusion enrichment index": 0.199},
      {"variant": "AGUUAUAUAUGGGAGCUCCAGCACAGUGAACUGGACAGAAGGGCAGAGCAA", "note": "[G5A C6U U7A G8U C9A A31C]", "exon inclusion enrichment index": 0.077},
      {"variant": "AGUUCGCGCCGGGAGCUCCAGCACAGUGAAAAAGACAGAAGGGCAGAGCAA", "note": "[G5C C6G U7C U10C U32A G33A]", "exon inclusion enrichment index": 2},
      {"variant": "AGUUGAAGAAGGGAGCUCCAGCAGUGUGAAAUGGACAGAAGGGCAGAGCAA", "note": "[C6A U7A C9A U10A C24G A25U]", "exon inclusion enrichment index": 0.778},
      {"variant": "AGUUGCUGCUGGGAGCUCCAGCACAGUGAAAUGGACAGAACAGCAGAGCAA", "note": "[G41C G42A]", "exon inclusion enrichment index": 0.238},
      {"variant": "AGUUACGACCGGGAGCUCCAGCACAGUGAAAUGGACAGAAGGGCAGAGCAA", "note": "[G5A U7G G8A U10C]", "exon inclusion enrichment index": 2.7},
      {"variant": "AGUUAGGGAUGGGAGCUCCAGCACAGUGAAUGGGACAGAAGGGCAGAGCAA", "note": "[G5A C6G U7G C9A A31U U32G]", "exon inclusion enrichment index": 0.0027},
      {"variant": "AGUUGAAGAAGGGAGCUCCAGCACAGUGAAAGAGACAGAAGGGCAGAGCAA", "note": "[C6A U7A C9A U10A U32G G33A]", "exon inclusion enrichment index": 0.11}
    ]}
  ]
}
